# In the supplement of paper PMC6757056:
# ± gives the standard deviation of the averaged measurements.
# B1: library; a variant is named by its letters at N, in order (parent)
# chain: GCUGUCACCGGUGCUUGGUACGUUAUAUUCAGCCGGUCUGAUGAGUCUNNNNNNAGACGAAACAGC
# Tests used:
# (6R,S)-folinic acid [1] = variants of: B1; assay: FACS-Seq fitted mean relative fluorescence mCherry/BFP without ligand (log10 relative fluorescence); HEK293T overexpressing SLC46A1; higher = higher reporter protein expression; details: without (6R,S)-folinic acid; ligand present: no
# Procedure: (§1)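 Hammerhead (sTRSV) ribozyme switch libraries with a ligand aptamer grafted on stem I and a randomized N4-6 loop II, cloned into the 3' UTR of mCherry and transiently transfected into HEK293T cells; RNA-Seq 72 h post transfection with ligand added 1 h before transfection; RNA read count / plasmid DNA read count normalized to the non-cleaving sTRSVctl (x100), log10; sequences with >100 DNA reads. FACS-Seq: lentiviral library sorted into 6 bins after 48 h ligand, log-normal fit mean of mCherry/BFP scaled to controls. Printed sequences are partial switch sequences.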
# (6R,S)-folinic acid [2] = variants of: B1; assay: normalized RNA/DNA level without ligand (relative to sTRSVctl = 100) (log10 (% of sTRSVctl)); HEK293T overexpressing SLC46A1; higher = less ribozyme self-cleavage, higher mRNA level; details: without (6R,S)-folinic acid; ligand present: no
# Procedure: as §1
# (6R,S)-folinic acid [3] = variants of: B1; assay: FACS-Seq fitted mean relative fluorescence mCherry/BFP with ligand (log10 relative fluorescence); HEK293T overexpressing SLC46A1; ligand concentration (+) FACS-Seq: 6 mM; higher = higher reporter protein expression; details: with (6R,S)-folinic acid; ligand present: yes
# Procedure: as §1
# (6R,S)-folinic acid [4] = variants of: B1; assay: normalized RNA/DNA level with ligand (relative to sTRSVctl = 100) (log10 (% of sTRSVctl)); HEK293T overexpressing SLC46A1; ligand concentration (+) RNA-Seq: 6 mM; higher = less ribozyme self-cleavage, higher mRNA level; details: with (6R,S)-folinic acid; ligand present: yes
# Procedure: as §1
Variant,"FACS-Seq fitted mean (log10) ((6R,S)-folinic acid [1])","normalized RNA/DNA level without ligand (log10) ((6R,S)-folinic acid [2])","FACS-Seq fitted mean (log10) ((6R,S)-folinic acid [3])","normalized RNA/DNA level with ligand (log10) ((6R,S)-folinic acid [4])"
AAGCCU,0.313 ± 0.032,2.056 ± 0.015,0.326 ± 0.052,2.03 ± 0.027
CAGAUA,0.631 ± 0.27,1.959 ± 0.008,0.663 ± 0.087,1.97 ± 0.027
UAGCAU,0.36 ± 0.07,1.942 ± 0.0083,0.328 ± 0.2,2 ± 0.042
UAGCAG,0.207 ± 0.14,1.755 ± 0.0028,0.401 ± 0.18,1.957 ± 0.019
AACGUA,0.196 ± 0.079,1.9883 ± 0.00019,0.207 ± 0.071,2.02 ± 0.026
AACGUG,0.4305 ± 0.0017,1.874 ± 0.0049,0.715 ± 0.2,1.98 ± 0.029
AACGUU,0.445 ± 0.028,1.991 ± 0.012,0.286 ± 0.094,1.98 ± 0.038
AAGAGA,0.0158 ± 0.096,1.929 ± 0.0075,0.157 ± 0.024,2.03 ± 0.049
AAGAGU,0.413 ± 0.019,1.924 ± 0.0098,0.369 ± 0.0072,2.02 ± 0.047
AAGAGG,0.589 ± 0.041,1.843 ± 0.0052,0.632 ± 0.11,1.99 ± 0.021
CAGAGG,-0.0517 ± 0.073,1.9 ± 0.016,0.0689 ± 0.4,2.002 ± 0.0054
CAGAAU,0.372 ± 0.044,1.921 ± 0.0042,0.495 ± 0.24,1.951 ± 0.0096
CAGAAA,0.257 ± 0.038,1.944 ± 0.0067,0.441 ± 0.2,1.97 ± 0.043
UAGGAC,0.556 ± 0.12,1.982 ± 0.019,0.551 ± 0.11,2 ± 0.025
UAGGAU,0.37 ± 0.051,1.9235 ± 0.00039,0.358 ± 0.23,2 ± 0.052
UAGGAA,0.503 ± 0.15,1.884 ± 0.01,0.822 ± 0.011,1.98 ± 0.038
GAGCAU,0.407 ± 0.06,1.979 ± 0.015,0.546 ± 0.41,2.016 ± 0.015
GAGCAC,0.00982 ± 0.061,2.002 ± 0.02,-0.159 ± 0.38,2.042 ± 0.0057
GAGCAG,0.523 ± 0.06,1.96 ± 0.004,0.688 ± 0.3,2.02 ± 0.058
GAGCUA,0.516 ± 0.2,2.0209 ± 0.0014,0.415 ± 0.15,2.04 ± 0.035
AACCGG,0.00166 ± 0.089,2.032 ± 0.0087,-0.0748 ± 0.11,2.04 ± 0.033
UACCGC,0.235 ± 0.05,1.988 ± 0.017,0.503 ± 0.22,1.99 ± 0.066
UACCGG,0.355 ± 0.059,1.982 ± 0.019,0.676 ± 0.1,2.004 ± 0.0069
UACCGU,0.352 ± 0.017,1.989 ± 0.0026,0.431 ± 0.11,2.02 ± 0.048

Variant,"FACS-Seq fitted mean (log10) ((6R,S)-folinic acid [1])","normalized RNA/DNA level without ligand (log10) ((6R,S)-folinic acid [2])","FACS-Seq fitted mean (log10) ((6R,S)-folinic acid [3])","normalized RNA/DNA level with ligand (log10) ((6R,S)-folinic acid [4])"
UACCGA,0.3629 ± 0.0013,1.9669 ± 0.00083,0.4406 ± 0.0022,2.04 ± 0.048
AAGAUU,0.318 ± 0.11,2.007 ± 0.0072,0.312 ± 0.032,2.02 ± 0.022
AAGAUC,0.442 ± 0.061,2.04 ± 0.0043,0.504 ± 0.1,2.02 ± 0.029
AAGAUA,-0.141 ± 0.082,1.959 ± 0.0077,-0.581 ± 0.18,1.994 ± 0.015
AAGAUG,0.3831 ± 0.00047,1.8871 ± 0.00048,0.235 ± 0.29,1.997 ± 0.018
UAGAAG,0.056 ± 0.02,1.654 ± 0.0022,0.456 ± 0.0016,1.963 ± 0.019
UAGAAA,0.332 ± 0.024,1.9239 ± 0.0006,0.254 ± 0.35,2.01 ± 0.023
UAGAAU,0.421 ± 0.089,1.921 ± 0.016,0.615 ± 0.02,2 ± 0.041
GAGGGU,0.338 ± 0.027,2.001 ± 0.016,0.556 ± 0.037,2.04 ± 0.041
GAGGGA,0.161 ± 0.042,1.969 ± 0.017,0.0592 ± 0.019,2.04 ± 0.028
UACGGU,0.419 ± 0.099,1.918 ± 0.012,0.282 ± 0.041,1.98 ± 0.024
UACGGG,0.198 ± 0.013,1.704 ± 0.0067,0.717 ± 0.3,1.97 ± 0.053
UACGGA,0.537 ± 0.046,1.8816 ± 0.00018,0.817 ± 0.11,2 ± 0.029
CACGCA,0.164 ± 0.12,2.025 ± 0.013,0.119 ± 0.063,2.024 ± 0.011
CACGUA,0.476 ± 0.1,1.989 ± 0.019,0.649 ± 0.35,2.01 ± 0.025
AACGCU,0.282 ± 0.034,2.01 ± 0.0054,0.217 ± 0.34,2 ± 0.035
AACGCC,0.452 ± 0.091,2.0652 ± 0.0011,0.336 ± 0.023,2.07 ± 0.046
AACGCA,0.404 ± 0.048,2.001 ± 0.013,0.533 ± 0.023,2 ± 0.035
GACGAG,-0.054 ± 0.034,1.907 ± 0.0022,0.319 ± 0.29,2.01 ± 0.037
GACGAU,0.612 ± 0.086,1.954 ± 0.0091,0.648 ± 0.068,2 ± 0.037
GACGAA,0.551 ± 0.09,1.963 ± 0.0039,0.69 ± 0.21,2 ± 0.04
CAGACC,0.131 ± 0.097,2.04 ± 0.012,0.261 ± 0.16,1.99 ± 0.031
CAGACA,0.583 ± 0.12,2.017 ± 0.00058,0.769 ± 0.2,1.98 ± 0.02
CAGCCU,0.13 ± 0.12,2.052 ± 0.016,-0.235 ± 0.22,2.05 ± 0.061

Variant,"FACS-Seq fitted mean (log10) ((6R,S)-folinic acid [1])","normalized RNA/DNA level without ligand (log10) ((6R,S)-folinic acid [2])","FACS-Seq fitted mean (log10) ((6R,S)-folinic acid [3])","normalized RNA/DNA level with ligand (log10) ((6R,S)-folinic acid [4])"
AACUUA,0.0993 ± 0.1,1.96 ± 0.032,0.0419 ± 0.12,1.98 ± 0.033
AACUUG,0.321 ± 0.0087,1.94 ± 0.0095,0.658 ± 0.031,1.996 ± 0.0088
CAGGUG,0.231 ± 0.12,1.96 ± 0.025,0.385 ± 0.089,1.992 ± 0.016
CAGGUA,0.0884 ± 0.016,1.667 ± 0.0023,0.0948 ± 0.22,1.806 ± 0.013
UAGCGG,-0.127 ± 0.027,1.671 ± 0.0027,0.217 ± 0.06,1.96 ± 0.023
GAGGUG,0.324 ± 0.045,1.967 ± 0.0026,0.505 ± 0.25,2.04 ± 0.043
GAGGUA,0.345 ± 0.029,1.844 ± 0.015,0.341 ± 0.17,1.92 ± 0.033
GAGGUU,-0.16 ± 0.053,1.991 ± 0.0089,-0.382 ± 0.15,2 ± 0.027
CAGGAC,0.301 ± 0.073,1.97 ± 0.022,0.0891 ± 0.079,1.97 ± 0.078
AACGAG,0.367 ± 0.0092,1.82 ± 0.032,0.501 ± 0.065,1.984 ± 0.01
AACGAA,0.105 ± 0.2,1.9508 ± 0.00076,0.0527 ± 0.083,1.99 ± 0.045
GACGGG,0.31 ± 0.087,1.99 ± 0.011,0.302 ± 0.24,2.04 ± 0.051
GACGGU,0.318 ± 0.049,1.994 ± 0.016,0.486 ± 0.32,2.01 ± 0.029
GACGGA,0.373 ± 0.037,1.991 ± 0.014,0.557 ± 0.19,2.05 ± 0.033
AACCAG,0.421 ± 0.13,1.966 ± 0.015,0.407 ± 0.2,2.0092 ± 0.00083
AACCAU,0.386 ± 0.012,1.976 ± 0.014,0.303 ± 0.018,2 ± 0.057
AAGACG,0.519 ± 0.038,1.92 ± 0.0073,0.622 ± 0.38,2 ± 0.058
AAGACA,0.531 ± 0.012,1.985 ± 0.0083,0.754 ± 0.13,2.01 ± 0.023
AACUGA,0.445 ± 0.11,2.008 ± 0.0069,0.455 ± 0.17,2.02 ± 0.038
AACUGG,0.3585 ± 0.0022,1.936 ± 0.013,0.657 ± 0.038,2 ± 0.07
AACUAC,0.381 ± 0.012,2 ± 0.021,0.181 ± 0.25,2.005 ± 0.02
GAGAAC,0.435 ± 0.033,1.964 ± 0.0051,0.598 ± 0.32,2.02 ± 0.045
GAGAAA,0.129 ± 0.016,1.958 ± 0.011,0.0474 ± 0.047,1.996 ± 0.01
